Consider two molecules from PMC8906541, “A conserved arginine in NS5 binds genomic 3′ stem–loop RNA for primer-independent initiation of flavivirus RNA replication”.

For data set [1], the target named is T1, NS5 WT (Dengue virus 2, UniProt A9LIC9 2492-3391). In words: EMSA; Kd value only in figure; >100-fold excess yeast tRNA does not affect binding. Particulars: protein: recombinant; tags: N-terminal His6-TEV, cleaved; stem-loop. (A gel shift assay detects complexes by their altered migration in electrophoresis.)
Data set [2] has as its target T1, NS5 WT. Description: EMSA; Kd stated only as micromolar range; value in figure. To be noted: protein: recombinant; tags: N-terminal His6-TEV, cleaved; stem-loop.

B1: 3'SL (structured_RNA)
RNA: AGAUCCUGCUGUCUCCUCAGCAUCAUUCCAGGCACAGAACGCCAGAAAAUGGAAUGGUGCUGUUGAAUCAACAGGUUCU
Take B1: in data set [1], the binding result is reported as “binds”.

B2: 5'SLA (structured_RNA)
RNA: AGUUGUUAGUCUACGUGGACCGACAAAGACAGAUUCUUUGAGGAAGCUAAGCUUAACGUAGUUCUAACAG
Regarding B2, in data set [2], the binding result was “binds”.
